Source: the supplement of paper PMC9170038

Test system: MS2 coat protein
Assay: apparent KD of MS2 coat protein; designed switch direction (-1 OFF switch, 1 ON switch): -1; higher = weaker reporter binding
In short: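 Each step of the titration lasted 0.8–1.5 h at the lowest concentration and 10–20 min at the highest. The protein, SNAP-549-labelled MS2 coat protein, went from 0.7 or 1.5 nM doubling to 3 µM over RNA switches transcribed on Illumina chips by stalled E. coli RNA polymerase. Normalised cluster fluorescence was curve-fitted, and the per-design median over clusters is given as apparent KD.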

[1] = Eterna round: R95, input ligand: FMN 200 uM
[2] = Eterna round: R95, input ligand: microRNA oligo, concentration not stated
[3] = Eterna round: R95, input ligand: none
[4] = input ligand: microRNA oligo, concentration not stated

Sequence | apparent KD of MS2 coat protein (input ligand: FMN 200 uM) | apparent KD of MS2 coat protein (input ligand: none) | apparent KD of MS2 coat protein [1] | apparent KD of MS2 coat protein [2] | apparent KD of MS2 coat protein [3] | apparent KD of MS2 coat protein [4]
CUGAGAUGAGGAUAUACAUGAGGAUCACCCAUGUAAAGUAGCUUGCGUACAGGCAGAUGUAGAAGGCAUUUCGG [Mod of JL 4 - Jieux - Exclusion 3] (Eterna round: R97, puzzle: Exclusion 3) | 44.7 nM | 25.3 nM |  |  |  | 
CUGAGCAGACGGAGAUCCAACAUGAGGAUCACCCAUGUCUCAAAAGCUUUUUGCUCGUCUUACCCUCCUCUGCUCUC [Ticeisor] (puzzle: Sensor v3, turn-off variant 1) |  |  | 19.1 nM | 40.3 nM | 15.1 nM | 
CUGAGCAGACGGAGAUCCAACAUGAGGAUCACCCAUGUCUCAAAAGCUUUUUGCUUGUCUUAUCCUCCUCUGUUCAC [Esqutian] (Eterna round: R96, puzzle: Sensor v3, turn-off variant 1) | 13.6 nM | 16.1 nM |  |  |  | 222 nM
CUGAGCAGACGGAGAUCCAACAUGAGGAUCACCCAUGUCUCAAAAGCUUUUUGCUUGUCUUAUCCUCCUCUGUUCAC [Esqutian] (puzzle: Sensor v3, turn-off variant 1) |  |  | 14 nM | 390 nM | 12.3 nM | 
CUGAGCAGACGGAGAUCCAACAUGAGGAUCACCCAUGUCUCAUAAGCUUUUUGCUCAUCUUAUUGUACCUUGGUGCA [Mat - Sensor v3 - turn-off var 1 - JL Mod - D21] (puzzle: Sensor v3, turn-off variant 1) |  |  | 426 nM | 15.6 nM | 290 nM | 
CUGAGCAGACGGAGAUCCAACAUGAGGAUCACCCAUGUCUCAUAAGCUUUUUGUUCAUCUUAUUGUACCUUGGUGCU [JL ViennaUCT Edcesobi mod 4] (puzzle: Sensor v3, turn-off variant 1) |  |  | 149 nM | 24.6 nM | 252 nM | 
CUGAGCUGAGGAUAUACAUGAGGAUCACCCAUGUGGGCCUGCGAGGUUACUUGCACAUGUAGAAGGCAGUUCGG [Extended Mod of JL - ex3-3.35 Brourd mod] (puzzle: Exclusion 3) |  |  |  | 74.4 nM |  | 
CUGAGGUAGCGGUCCUAUGACAUGAGGAUCACCCAUGUACCUUGCUUUGAGCUUUAAGCUCGUCUUAUGAUUCUCGG [Mat - Sensor v3 - turn-off var 1 - JL Mod - D44] (puzzle: Sensor v3, turn-off variant 1) |  |  | 504 nM | 625 nM | 861 nM | 
CUGAUGUUAGGAUAUCAGGCGCCCGCCACUAGCAAGGCGCAUGAGAAGGGACAUGAGGAUCACCCAUGUAGUAA [Xexeonza] (puzzle: Exclusion 4) |  |  |  | 27.7 nM |  | 
CUGAUGUUAGGAUAUCAGGUCACGCGCGAAGGCGCGCGGCAUGAGAAGGAACAUGAGGAUCACCCAUGUGACGA [Reisquso] (Eterna round: R96, puzzle: Exclusion 4) | 305 nM | 43.3 nM |  |  |  | 29.6 nM
CUGCUCCGUGUAGGAUAUGCGCGCAACCAACGCGCAGAAGGACAUGAGGAUCACCCAUGUAUGUUAUUAUCACGUGAAGCGUCC [Design 30] (Eterna round: R96, puzzle: Exclusion NG 1) | 56.7 nM | 18.2 nM |  |  |  | 19.9 nM
CUGGAAAACGAGGAUAUGCACCGGCUCGCUGACGCAGAAGGCGACACAUGAGGAUCACCCAUGUCGGUACGCGA [salish99_ex6_r004_449] (Eterna round: R97, puzzle: Exclusion 6) | 17.2 nM | 18.8 nM |  |  |  | 
CUGGACCGAGGAUAUAUUAUGUGAAACAUGAGGAUCACCCAUGUAAUAUGAUGGAUGUAAAUAGAAGGCGGUCUAG [Mat - Exclusion 5 - JL mod - D28] (puzzle: Exclusion 5) |  |  | 34.5 nM | 35.1 nM | 47.3 nM | 
CUGGAGUCAGGAUAUGACGCAGUCCGCCCAAAGGGCGGAAAUCAGAAGGGACUUGAGGAUCACCCAAGUAAAAG [Gecear] (Eterna round: R97, puzzle: Exclusion 4) | 28.8 nM | 31.4 nM |  |  |  | 
CUGGUCCGAGGAUAUAUUAUGUGAUACAUGAGGAUCACCCAUGUUAUAUGAUGGAAAUAAAUAGAAGGCGGACUAG [Mat - Exclusion 5 - JL mod - D67] (puzzle: Exclusion 5) |  |  | 79 nM | 70.5 nM | 69 nM | 
CUGGUCCGAGGAUAUAUUUUGUGAAACAUGAGGAUCACCCAUGUAAUAAAAUGGAUAUAAAUAGAAGGCGGACUAG [Mat - Exclusion 5 - JL mod - D41] (puzzle: Exclusion 5) |  |  | 25.1 nM | 21 nM | 18.1 nM | 
CUGGUCCGAGGAUAUAUUUUGUGAUACAUGAGGAUCACCCAUGUAAUAAGAUGGAAGUAAAUAGAAGGCGGACUAG [Mat - Exclusion 5 - JL mod - D47] (puzzle: Exclusion 5) |  |  | 69.3 nM | 125 nM | 150 nM | 

Sequence | apparent KD of MS2 coat protein (input ligand: FMN 200 uM) | apparent KD of MS2 coat protein (input ligand: none) | apparent KD of MS2 coat protein [1] | apparent KD of MS2 coat protein [2] | apparent KD of MS2 coat protein [3] | apparent KD of MS2 coat protein [4]
CUGGUCUAUGUAGGAUAUGGUGUAUAUGUAUUACCAGAAGGACAUGAGGAUCACCCAUGUGUCGUGGUAUGAGUAGGUGAUGUU [Random] (Eterna round: R96, puzzle: Exclusion NG 1) |  |  |  |  |  | 40.2 nM
CUGGUGUGAGGAUAUCAGGGCACGCCCAAGGGCGUACCAAAUGAGAAGGCACAUGAGGAUCACCCAUGUGGGAC [Lasoena] (puzzle: Exclusion 4) |  |  |  | 32 nM |  | 
CUGUACUGAGGAUAUACAUGAGGAUCACCCAUGUGAUUUAGUGCACGCGUACGUGUACGUAGAAGGCAGUACAG [Mat - Exclusion 3 - Eli Mod - D36] (Eterna round: R97, puzzle: Exclusion 3) | 183 nM | 25.2 nM |  |  |  | 
CUGUACUGAGGAUAUACAUGAGGAUCACCCAUGUGUACCAGCUAGGAAACUAGCAAAAGUAGAAGGCAGUACAG [Mat - Exclusion 3 - Eli Mod - D62] (Eterna round: R97, puzzle: Exclusion 3) | 27.6 nM | 13.3 nM |  |  |  | 
CUGUACUGAGGAUAUACAUGAGGAUCACCCAUGUUCUUCGGCUAGGAAACUAGCAAAGGUAGAAGGCAGUACAG [Mat - Exclusion 3 - Eli Mod - D68] (Eterna round: R97, puzzle: Exclusion 3) | 234 nM | 15.1 nM |  |  |  | 
CUGUGAUGAGGAUAUACAUGAGGAUCACCCAUGUGUCCUCUGAUGGGUAGGGACCCUGGUAGAAGGCAUUGAGA [Eternabot (L1) Solution 52] (Eterna round: R97, puzzle: Exclusion 3) | 19.2 nM | 15.5 nM |  |  |  | 
CUGUGCACGCUGCGGUCCUACAUGAGGAUCACCCAUGUGGUCUGGUGGCGUGGGUCACCGGACUUGGCUCGUCUUGC [salish99_S_TOV1_R5_062] (Eterna round: R97, puzzle: Sensor, turn-off variant 1) | 22.9 nM | 22.5 nM |  |  |  | 
CUGUGUAGACAGGAUAUGCUGUACAAAAGUACAGCAGAAGGGUCUACAUGAGGAUCACCCAUGUUUACUUCAUG [)mei Ex6 B23] (Eterna round: R97, puzzle: Exclusion 6) | 20.4 nM | 98.4 nM |  |  |  | 
CUUAGACAUGAGGAUCACCCAUGUGAGGAUAUGAUGCAGCAGUGGUCUACGCUGUGCAUCAGAAGGCACAUAUG [mod of disincluded 3 v.3 (my top score 87 - 28% A's)] (puzzle: Exclusion 1) |  |  |  | 108 nM |  | 
CUUAGACAUGAGGAUCACCCAUGUGAGGAUAUGAUGCGAAUGAAGAAAGAAGGAAGCAUCAGAAGGCACAUAUG [Mat - Mod of Hyphema D26] (puzzle: Exclusion 1) |  |  | 323 nM | 163 nM | 143 nM | 
CUUCGACAUGAGGAUCACCCAUGUCAGGAUAUUGUGUAUCGGGUUUUUUACGGAUAGGCAAGAAGGGAUGUGUG [LRO-Excl1-06] (puzzle: Exclusion 1) |  |  |  | 32.7 nM |  | 
CUUCUGUGAGGAUAUUAGUAGUAAAUGAAUAAAAUUAUUACUGAGAAGGCACAUGAGGAUCACCCAUGUUCCUC [Mat - Exclusion 4 - Eli Mod - D12] (Eterna round: R97, puzzle: Exclusion 4) | 386 nM | 36.3 nM |  |  |  | 
CUUGUCCGAGGAUAUAUUAUGUGAUACAUGAGGAUCACCCAUGUUAUAUGAUGGAUAUAAAUAGAAGGCGGACGAG [Mat - Exclusion 5 - JL mod - D68] (puzzle: Exclusion 5) |  |  | 70.2 nM | 46.7 nM | 47.3 nM | 
CUUGUUUAUGUGAGGAUAUACUGUUAGUAAUGUUUGUAGAAGGUACAUGAGGAUCACCCAUGUUUAUUUUUUUU [JR_BME4_Sub044] (puzzle: Brourd's mod of Exclusion 4) |  |  |  | 20.2 nM |  | 
CUUUAGCUAGGAUAUACAUGAGGAUCACCCAUGUUAGCGGUCCAUUGGGCCGCGGGUUGUAGAAGGAGCAUUAA [Azabeso] (puzzle: Exclusion 3) |  |  |  | 25.3 nM |  | 
CUUUAGUGAGGAUAUGUGGCUUCGAUCGUGAGAUCGAGGCUACAGAAGGCACAUGAGGAUCACCCAUGUUCCUC [jl-ex4-4.01 salish99 mod] (Eterna round: R97, puzzle: Exclusion 4) | 464 nM | 34.1 nM |  |  |  | 
CUUUAGUGAGGAUAUUAGUAGUAAUACAAUAGUAUUACUACUGAGAAGGCACAUGAGGAUCACCCAUGUUCCUC [Mat - Exclusion 4 - Mod of Omei - D79] (Eterna round: R96, puzzle: Exclusion 4) | 303 nM | 28.5 nM |  |  |  | 25 nM
